We go through one variant from IntAct's records for PubMed 21804557.

First the molecules themselves.
B1: Indoleamine 2,3-dioxygenase 1 (Mus musculus), P28776 (parent)
chain: MALSKISPTEGSRRILEDHHIDEDVGFALPHPLVELPDAYSPWVLVARNLPVLIENGQLREEVEKLPTLSTDGLRGHRLQRLAHLALGYITMAYVWNRGDDDVRKVLPRNIAVPYCELSEKLGLPPILSYADCVLANWKKKDPNGPMTYENMDILFSFPGGDCDKGFFLVSLLVEIAASPAIKAIPTVSSAVERQDLKALEKALHDIATSLEKAKEIFKRMRDFVDPDTFFHVLRIYLSGWKCSSKLPEGLLYEGVWDTPKMFSGGSAGQSSIFQSLDVLLGIKHEAGKESPAEFLQEMREYMPPAHRNFLFFLESAPPVREFVISRHNEDLTKAYNECVNGLVSVRKFHLAIVDTYIMKPSKKKPTDGDKSEEPSNVESRGTGGTNPMTFLRSVKDTTEKALLSWP

The variants in this assay derive from B1. Conditions: with ptn6_mouse Ptpn6, P29351.
Chain of ptn6_mouse Ptpn6, P29351 (P29351 whole entry): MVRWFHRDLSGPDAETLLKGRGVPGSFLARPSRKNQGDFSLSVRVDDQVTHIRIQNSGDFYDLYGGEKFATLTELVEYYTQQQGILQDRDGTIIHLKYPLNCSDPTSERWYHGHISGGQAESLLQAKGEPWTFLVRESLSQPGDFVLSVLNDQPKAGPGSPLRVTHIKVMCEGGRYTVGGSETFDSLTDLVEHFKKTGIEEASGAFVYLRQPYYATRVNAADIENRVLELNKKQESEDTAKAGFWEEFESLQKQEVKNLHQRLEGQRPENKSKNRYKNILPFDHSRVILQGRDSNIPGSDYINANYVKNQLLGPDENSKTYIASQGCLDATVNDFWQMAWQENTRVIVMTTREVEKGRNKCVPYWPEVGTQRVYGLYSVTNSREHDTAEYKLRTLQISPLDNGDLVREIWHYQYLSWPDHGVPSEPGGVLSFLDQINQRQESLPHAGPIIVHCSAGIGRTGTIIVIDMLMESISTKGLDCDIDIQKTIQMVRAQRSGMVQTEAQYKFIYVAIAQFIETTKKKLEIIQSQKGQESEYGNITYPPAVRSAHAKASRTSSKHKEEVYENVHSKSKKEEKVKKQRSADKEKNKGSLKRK
Take Y115F;Y253F: the “effect of a mutation on the interaction” value is reported as “decreasing interaction”.
